The Immune Epitope Database (IEDB)

What was measured:
HLA-A*01:01 = test: IEDB peptide-MHC binding, purified MHC/competitive/radioactivity; filed as Kd, often an IC50 or EC50 that approximates it; ≥ and ≤ were set here for values at or beyond the usual limits of such assays
HLA-A*26:01 [1] = test: as above
HLA-A*29:02 = test: as above
HLA-A*30:01 = test: as above
HLA-A*30:02 = test: as above
HLA-A*32:01 = test: as above
HLA-A*23:01 = test: as above
HLA-A*24:02 = test: as above
HLA-B*51:01 = test: as above
HLA-A*26:01 [2] = test: IEDB peptide-MHC binding, purified MHC/direct/fluorescence; filed as Kd, often an IC50 or EC50 that approximates it; ≥ and ≤ were set here for values at or beyond the usual limits of such assays; settings: source organism: West Nile virus
HLA-B*53:01 = test: IEDB peptide-MHC binding, purified MHC/competitive/radioactivity; filed as Kd, often an IC50 or EC50 that approximates it; ≥ and ≤ were set here for values at or beyond the usual limits of such assays
HLA-B*35:01 = test: as above
[3] = source organism: Mammarenavirus whitewaterense
[4] = source organism: Dengue virus 1 Brazil/97-11/1997
[5] = source organism: SARS coronavirus Tor2
[6] = source organism: Dengue virus 4 Philippines/H241/1956
[7] = source organism: Dengue virus 2 Jamaica/1409/1983
[8] = source organism: Mammarenavirus juninense
[9] = source organism: Mammarenavirus guanaritoense
[10] = source organism: Lymphocytic choriomeningitis virus (strain Armstrong)
[11] = source organism: Dengue virus 4 Dominica/814669/1981
[12] = source organism: Dengue virus 3 Martinique/1243/1999
[13] = source organism: Dengue virus 1 Singapore/S275/1990
[14] = source organism: Mammarenavirus machupoense
[15] = source organism: Dengue virus 3 Singapore/8120/1995
[16] = source organism: Mammarenavirus brazilense
[17] = source organism: Mammarenavirus lassaense

Sequence: ATGTDMPGGY
- Kd (HLA-A*01:01; [3]): 33 nM
- Kd (HLA-A*26:01 [1]; [3]): ≥ 69700 nM
- Kd (HLA-A*29:02; [3]): 8850 nM
- Kd (HLA-A*30:01; [3]): ≥ 63600 nM
- Kd (HLA-A*30:02; [3]): 531 nM
- Kd (HLA-A*32:01; [3]): ≥ 69900 nM

Sequence: AWNIWEVEDY
- Kd (HLA-A*30:02; [4]): 1880 nM

Sequence: AYATAQEAY
- Kd (HLA-A*01:01; [5]): ≥ 98000 nM
- Kd (HLA-A*23:01; [5]): ≥ 77800 nM
- Kd (HLA-A*24:02; [5]): ≥ 53900 nM
- Kd (HLA-A*26:01 [1]; [5]): ≥ 43100 nM
- Kd (HLA-A*29:02; [5]): 642 nM
- Kd (HLA-A*30:02; [5]): 50.6 nM

Sequence: AYMLFTKFFY
- Kd (HLA-A*01:01; [5]): 339 nM
- Kd (HLA-A*23:01; [5]): 0.115 nM
- Kd (HLA-A*24:02; [5]): 0.241 nM
- Kd (HLA-A*26:01 [1]; [5]): 83.5 nM
- Kd (HLA-A*29:02; [5]): 0.00115 nM

Sequence: CKSKNPLLY
- Kd (HLA-A*01:01; [5]): ≥ 87700 nM
- Kd (HLA-A*23:01; [5]): ≥ 67600 nM
- Kd (HLA-A*24:02; [5]): ≥ 77600 nM
- Kd (HLA-A*26:01 [1]; [5]): ≥ 81500 nM
- Kd (HLA-A*29:02; [5]): 163 nM
- Kd (HLA-A*30:02; [5]): 199 nM

Sequence: CYSQVNPTTL
- Kd (HLA-A*23:01; [6]): 1330 nM
- Kd (HLA-A*24:02; [6]): 326 nM

Sequence: DPRRCMKPVI
- Kd (HLA-B*51:01; [7]): 9650 nM

Sequence: DSSQGSEYDY
- Kd (HLA-A*01:01; [5]): 151 nM
- Kd (HLA-A*23:01; [5]): ≥ 70000 nM
- Kd (HLA-A*24:02; [5]): ≥ 70300 nM
- Kd (HLA-A*26:01 [1]; [5]): 7270 nM
- Kd (HLA-A*29:02; [5]): 1350 nM
- Kd (HLA-A*30:02; [5]): 151 nM

Sequence: EALSGFLQY
- Kd (HLA-A*01:01; [8]): 11600 nM
- Kd (HLA-A*26:01 [1]; [8]): 1490 nM
- Kd (HLA-A*29:02; [8]): 778 nM
- Kd (HLA-A*30:01; [8]): ≥ 43100 nM
- Kd (HLA-A*30:02; [8]): 3950 nM
- Kd (HLA-A*32:01; [8]): ≥ 77800 nM

Sequence: EVEDYGFGVF
- Kd (HLA-A*23:01; [7]): 1000 nM
- Kd (HLA-A*26:01 [1]; [7]): 132 nM

Sequence: FKPGTSGSPI
- Kd (HLA-B*51:01; [4]): 5750 nM

Sequence: FLDGVNLVA
- Kd (HLA-A*01:01; [9]): 9.76 nM
- Kd (HLA-A*23:01; [9]): 8810 nM
- Kd (HLA-A*24:02; [9]): ≥ 77500 nM
- Kd (HLA-A*26:01 [1]; [9]): ≥ 77900 nM
- Kd (HLA-A*29:02; [9]): 5430 nM
- Kd (HLA-A*30:02; [9]): 17700 nM

Sequence: FMMSRRRLL
- Kd (HLA-A*01:01; [5]): ≥ 78100 nM
- Kd (HLA-A*23:01; [5]): 496 nM
- Kd (HLA-A*24:02; [5]): 1410 nM
- Kd (HLA-A*26:01 [1]; [5]): ≥ 77900 nM
- Kd (HLA-A*29:02; [5]): 2620 nM
- Kd (HLA-A*30:02; [5]): 6730 nM

Sequence: FSKSRSTLMY
- Kd (HLA-A*01:01; [10]): 68.5 nM
- Kd (HLA-A*26:01 [1]; [10]): 878 nM
- Kd (HLA-A*29:02; [10]): 333 nM
- Kd (HLA-A*30:01; [10]): 377 nM
- Kd (HLA-A*30:02; [10]): 993 nM
- Kd (HLA-A*32:01; [10]): ≥ 69900 nM

Sequence: GAEHVDTSY
- Kd (HLA-A*01:01; [5]): 398 nM
- Kd (HLA-A*23:01; [5]): ≥ 77800 nM
- Kd (HLA-A*24:02; [5]): ≥ 77600 nM
- Kd (HLA-A*26:01 [1]; [5]): 2450 nM
- Kd (HLA-A*29:02; [5]): 722 nM
- Kd (HLA-A*30:02; [5]): 2900 nM

Sequence: HLSRTVVYSY
- Kd (HLA-A*01:01; [9]): 1330 nM
- Kd (HLA-A*26:01 [1]; [9]): 10600 nM
- Kd (HLA-A*29:02; [9]): 1210 nM
- Kd (HLA-A*30:01; [9]): 525 nM
- Kd (HLA-A*30:02; [9]): 63.8 nM
- Kd (HLA-A*32:01; [9]): 671 nM

Sequence: HTNEDDSNF
- Kd (HLA-A*26:01 [2]): 1900 nM

Sequence: IPHDLMELI
- Kd (HLA-B*51:01; [11]): 16.8 nM
- Kd (HLA-B*53:01; [11]): 6.5 nM

Sequence: LMKITAEWLW
- Kd (HLA-B*53:01; [7]): 1410 nM

Sequence: LPETMETLLL
- Kd (HLA-B*35:01; [12]): 1210 nM
- Kd (HLA-B*51:01; [12]): 1170 nM
- Kd (HLA-B*53:01; [12]): 24.3 nM

Sequence: LPLPWAAGAD
- Kd (HLA-B*35:01; [6]): 4140 nM
- Kd (HLA-B*51:01; [6]): ≥ 22900 nM

Sequence: LPVLLGSLGC
- Kd (HLA-B*35:01; [13]): 2030 nM
- Kd (HLA-B*51:01; [13]): ≥ 20100 nM
- Kd (HLA-B*53:01; [13]): 199 nM

Sequence: LSSSEPHCA
- Kd (HLA-A*01:01; [14]): 4190 nM
- Kd (HLA-A*23:01; [14]): ≥ 60900 nM
- Kd (HLA-A*24:02; [14]): ≥ 77500 nM
- Kd (HLA-A*26:01 [1]; [14]): ≥ 77900 nM
- Kd (HLA-A*29:02; [14]): ≥ 78900 nM
- Kd (HLA-A*30:02; [14]): 2350 nM

Sequence: LWMADVPLQW
- Kd (HLA-A*23:01; [15]): 39.7 nM
- Kd (HLA-A*24:02; [15]): 24.3 nM

Sequence: LWPFIRINNL
- Kd (HLA-A*23:01; [9]): 117 nM
- Kd (HLA-A*24:02; [9]): 453 nM
- Kd (HLA-A*29:02; [9]): 1640 nM

Sequence: LYLYALIYFL
- Kd (HLA-A*01:01; [5]): 4270 nM
- Kd (HLA-A*23:01; [5]): 22 nM
- Kd (HLA-A*24:02; [5]): 299 nM
- Kd (HLA-A*26:01 [1]; [5]): 2460 nM
- Kd (HLA-A*29:02; [5]): 3000 nM
- Kd (HLA-A*30:02; [5]): 6960 nM

Sequence: LYYPSARIVY
- Kd (HLA-A*01:01; [5]): ≥ 37800 nM
- Kd (HLA-A*23:01; [5]): 1910 nM
- Kd (HLA-A*24:02; [5]): 2020 nM
- Kd (HLA-A*26:01 [1]; [5]): 7360 nM
- Kd (HLA-A*29:02; [5]): 14.6 nM
- Kd (HLA-A*30:02; [5]): 71.8 nM

Sequence: MYLKLRSETL
- Kd (HLA-A*01:01; [5]): 7220 nM
- Kd (HLA-A*23:01; [5]): 44.5 nM
- Kd (HLA-A*24:02; [5]): 164 nM
- Kd (HLA-A*26:01 [1]; [5]): 7590 nM
- Kd (HLA-A*29:02; [5]): 17700 nM
- Kd (HLA-A*30:02; [5]): 18200 nM

Sequence: NYPYLFEEHL
- Kd (HLA-A*23:01; [16]): 824 nM
- Kd (HLA-A*24:02; [16]): 979 nM
- Kd (HLA-A*29:02; [16]): ≥ 71400 nM

Sequence: PFGDSYIII
- Kd (HLA-A*23:01; [7]): 3960 nM

Sequence: QWNLVIGFLF
- Kd (HLA-A*01:01; [5]): ≥ 30600 nM
- Kd (HLA-A*23:01; [5]): 2.14 nM
- Kd (HLA-A*24:02; [5]): 5.64 nM
- Kd (HLA-A*26:01 [1]; [5]): ≥ 69700 nM
- Kd (HLA-A*29:02; [5]): 39.5 nM
- Kd (HLA-A*30:02; [5]): ≥ 26300 nM

Sequence: QYNLSHSYAV
- Kd (HLA-A*01:01; [17]): ≥ 70400 nM
- Kd (HLA-A*23:01; [17]): 346 nM
- Kd (HLA-A*24:02; [17]): 1950 nM
- Kd (HLA-A*26:01 [1]; [17]): ≥ 69700 nM
- Kd (HLA-A*29:02; [17]): 1300 nM
- Kd (HLA-A*30:02; [17]): 3330 nM

Sequence: RVGLYGLLFY
- Kd (HLA-A*01:01; [9]): 17400 nM
- Kd (HLA-A*26:01 [1]; [9]): ≥ 69700 nM
- Kd (HLA-A*29:02; [9]): 48.4 nM
- Kd (HLA-A*30:01; [9]): 4050 nM
- Kd (HLA-A*30:02; [9]): 36.6 nM
- Kd (HLA-A*32:01; [9]): 2340 nM

Sequence: SYKVASEGF
- Kd (HLA-A*23:01; [4]): 626 nM
- Kd (HLA-A*24:02; [4]): 209 nM

Sequence: TGFDWITDY
- Kd (HLA-A*30:02; [6]): 1600 nM

Sequence: VAHSSLYGRY
- Kd (HLA-A*01:01; [8]): 5800 nM
- Kd (HLA-A*26:01 [1]; [8]): 11700 nM
- Kd (HLA-A*29:02; [8]): 349 nM
- Kd (HLA-A*30:01; [8]): 8960 nM
- Kd (HLA-A*30:02; [8]): 5.86 nM
- Kd (HLA-A*32:01; [8]): ≥ 69900 nM

Sequence: YAQMWSLMY
- Kd (HLA-A*30:02; [12]): 8.8 nM
